Test results published in patent publication US20250115671A1 (BEIGENE, published 2025).
One block for each binder: values may come before it.

Key:
huCCR8 M266A [1] = target: T1, huCCR8 M266A (human, UniProt P51685 1-355); assay: flow cytometry, transfected Expi293 cells, antibody at 50, 10 and 1 nM
T1 construct: Point mutant on transfected Expi293 cells
Protocol: (§1) To more precisely determine the specific amino acid residues that are crucial for antibody binding to human CCR8, point mutations were introduced to ECL2, ECL3 and N-terminal regions of human CCR8, as shown in the first column of Table 19. To evaluate the impact of each mutant, humanized anti-CCR8 antibody hu305-5W-3a was used to react with transfected Expi293 cells as described above with the concentration of 50 nM, 10 nM and 1 nM (results summarized in Table 19). The critical amino acids for hu305-5W-3a binding are marked with an “X” indicating a loss of >50% compared with wild type huCCR8, which is considered significant.

huCCR8 Y172A [2] = target: T2, huCCR8 Y172A (human, UniProt P51685 1-355); assay: as above
T2 construct: Point mutant on transfected Expi293 cells
Protocol: as §1

huCCR8 D178A [3] = target: T3, huCCR8 D178A (human, UniProt P51685 1-355); assay: as above
T3 construct: Point mutant on transfected Expi293 cells
Protocol: as §1

huCCR8 E177A [4] = target: T4, huCCR8 E177A (human, UniProt P51685 1-355); assay: as above
T4 construct: Point mutant on transfected Expi293 cells
Protocol: as §1

huCCR8 D26A [5] = target: T5, huCCR8 D26A (human, UniProt P51685 1-355); assay: as above
T5 construct: Point mutant on transfected Expi293 cells
Protocol: as §1

huCCR8 L269A [6] = target: T6, huCCR8 L269A (human, UniProt P51685 1-355); assay: as above
T6 construct: Point mutant on transfected Expi293 cells
Protocol: as §1

huCCR8 M266A [7] = target: T1, huCCR8 M266A; assay: flow cytometry, transfected Expi293 cells, serial dilution from 200 nM
Protocol: (§2) In comparison, the 10A11 reference antibody recognizes D14, Y17, D19 on the N-terminal domain of huCCR8 as the mutation on these sites totally abolished the binding, indicating no overlap in epitope between the reference antibody 10A11 and hu305-5W-3a. To further confirm the critical roles of these sites for binding, the transfected Expi293 cells were stained with a serial dilution of hu305-5W-3a from 200 nM followed by detection with Alexa Fluor 647 Rabbit Anti-Human IgG (Cat.: 309-605-008 Jackson ImmunoResearch) to obtain a full binding curve. […] D178 and M266 are considered as 2nd tier epitopes having media impact on Hu305-5W-3a binding. Substitution them with Ala will lead to ˜3 folds decrease of EC50.

huCCR8 Y172A [8] = target: T2, huCCR8 Y172A; assay: as above
Protocol: as §2

huCCR8 D178A [9] = target: T3, huCCR8 D178A; assay: as above
Protocol: as §2

huCCR8 E177A [10] = target: T4, huCCR8 E177A; assay: as above
Protocol: as §2

huCCR8 D26A [11] = target: T5, huCCR8 D26A; assay: as above
Protocol: as §2

huCCR8 L269A [12] = target: T6, huCCR8 L269A; assay: as above
Protocol: as §2

human CCR8 [13] = target: T7, human CCR8 (human, UniProt P51685 1-355); assay: as above
T7 construct: Full length; also called huCCR8; C-C motif chemokine receptor 8
Protocol: as §2

[14] = target: T8, human CCR8 N-terminal domain-mouse Fc tag fusion protein (human (CCR8 part), mouse IgG2a Fc); assay: ELISA, plate coated with human CCR8 N-terminal domain-Fc fusion
T8 construct: also called huCCR8-N-mIgG2a; human CCR8 N-terminal protein
T8 chain: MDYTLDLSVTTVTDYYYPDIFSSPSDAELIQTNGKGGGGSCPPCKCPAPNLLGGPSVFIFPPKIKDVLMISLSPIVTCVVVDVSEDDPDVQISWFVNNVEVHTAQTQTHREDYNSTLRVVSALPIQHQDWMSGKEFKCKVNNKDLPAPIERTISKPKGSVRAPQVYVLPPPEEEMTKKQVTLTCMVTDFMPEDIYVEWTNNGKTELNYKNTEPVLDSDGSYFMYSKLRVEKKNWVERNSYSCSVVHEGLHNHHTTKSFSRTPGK
Protocol: To determine whether anti-CCR8 antibodies bind to the N-terminal domain of human CCR8, ELISA plates were coated with human CCR8 N-terminal domain-mouse Fc tag fusion protein (SEQ ID NO: 28 and 29) overnight at 4° C. After washing and blocking, serially diluted anti-CCR8 antibodies were added to plates and incubated for 1 hour at room temperature. After washing, diluted HRP goat anti-human IgG Fc or HRP goat anti-mouse kappa chain (for 433H) secondary antibodies were added to plates and incubated for 45 minutes at room temperature. After washing, TMB substrate was added to plates for developing and then stopped by adding TMB substrate stop solution. The absorbance was read at 450 nm using a plate reader. […] It is a non CCR8 N-terminal loop binder.

Cynomolgus Monkey CCR8 = target: T9, Cynomolgus Monkey CCR8 (cynomolgus monkey, UniProt O97665 1-356 (rhesus entry)); assay: flow cytometry, 293T-cynoCCR8 cells
T9 construct: also called cyno CCR8; cynoCCR8
From the text: (§3) After washing twice with FACS buffer, cells were resuspended with FACS buffer and acquired on a Beckton Dickinson LSR Fortessa™. Titration curves were generated using sigmoid dose-response of nonlinear fit from GraphPad, and the EC50s of representative antibodies are shown in Table 2.

human CCR8 [15] = target: T7, human CCR8; assay: flow cytometry, 293T-huCCR8 cells
From the text: as §3

mouse CCR8 = target: T10, mouse CCR8 (mouse, UniProt P56484 1-353); assay: flow cytometry on transfected Expi293 cells, serial dilution
T10 construct: Full length, transiently expressed on Expi293 cells; also called muCCR8; CCR8-mo8
T10 sequence: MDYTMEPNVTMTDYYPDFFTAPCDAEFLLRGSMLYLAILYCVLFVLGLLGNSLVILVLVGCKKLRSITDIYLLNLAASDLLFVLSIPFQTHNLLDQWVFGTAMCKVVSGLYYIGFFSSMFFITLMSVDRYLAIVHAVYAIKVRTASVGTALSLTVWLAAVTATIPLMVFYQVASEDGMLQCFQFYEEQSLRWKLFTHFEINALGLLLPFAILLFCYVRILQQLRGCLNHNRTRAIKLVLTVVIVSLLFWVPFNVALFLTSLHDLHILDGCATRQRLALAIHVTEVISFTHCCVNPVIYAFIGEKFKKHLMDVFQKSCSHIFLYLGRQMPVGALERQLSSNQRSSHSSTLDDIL
Protocol: The plasmids containing these chimeric CCR8 constructs, and human CCR8 (CCR8-hu8) and mouse CCR8 (CCR8-mo8) as control, were used to transfect Expi293™ cells for transient protein expression, after which cells were incubated with a serial dilution of the purified Ch305 as well as a reference antibody 10A11 from Shionogi (US 2022/0064312 A1). The binding of each construct was evaluated detection with Alexa Fluor 647 Rabbit Anti-Human IgG (Cat.: 309-605-008 Jackson ImmunoResearch). […] In addition, replacing the human CCR8 N-terminal region with mouse CCR8 N-terminal (CCR8_Ch1) also weakly impairs the affinity, which means human CCR8 N-terminal contributes to the binding activity of human CCR8 with Ch305. In the meanwhile, substituting mouse CCR8 N-terminal with human CCR8 N-terminal (CCR8_Ch5) rescues the binding activity of murine CCR8 with Ch305 to some extent much weaker than the binding activity of wild type human CCR8 to Ch305, which means human CCR8 N-terminal contributes but weakly or partly to the binding activity of human CCR8 with Ch305. […] In comparison, the reference antibody 10A11 binds to the N-terminal region of CCR8 only and it has no binding to ECL1, ECL2 and ECL3, that is, the epitope of 10A11 on human CCR8 locates only on N-terminal of human CCR8 (FIG. 9B).

human CCR8 [16] = target: T7, human CCR8; assay: flow cytometry, Jurkat-human CCR8 cells
Protocol: To evaluate the binding activity of anti-CCR8 antibodies to bind CCR8 expressed on living cells, Jurkat cells were engineered to over-express human CCR8. Jurkat-human CCR8 cells were seeded in 96-well plate and incubated with a series of dilutions of anti-CCR8 antibodies. Goat anti-human IgG was used as secondary antibody to detect antibody binding to the cell surface. EC50 values for dose-dependent binding to human CCR8 were determined by fitting the dose-response data to the four-parameter logistic model with GraphPad Prism. As shown in Table 4 and FIG. 3 the CCR8 antibodies had high binding affinity to human CCR8.

human CCR8 [17] = target: T7, human CCR8; assay: cell-based or functional assay

T9 sequence (O97665 other isoform, or with tags, fused parts or gaps): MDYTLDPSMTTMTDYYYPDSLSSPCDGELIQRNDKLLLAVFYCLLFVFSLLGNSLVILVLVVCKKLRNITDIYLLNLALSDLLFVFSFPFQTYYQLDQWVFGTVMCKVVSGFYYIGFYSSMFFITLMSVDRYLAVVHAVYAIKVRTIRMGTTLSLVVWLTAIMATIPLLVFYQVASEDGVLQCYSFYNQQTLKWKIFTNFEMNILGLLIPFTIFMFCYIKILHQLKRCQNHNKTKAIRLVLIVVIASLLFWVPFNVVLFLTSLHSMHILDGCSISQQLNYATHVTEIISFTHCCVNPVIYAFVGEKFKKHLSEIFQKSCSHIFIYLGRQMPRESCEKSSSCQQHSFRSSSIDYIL

loss of binding compared with wild type huCCR8 (huCCR8 M266A [1]): > 50%
loss of binding compared with wild type huCCR8 (huCCR8 Y172A [2]): > 50%
loss of binding compared with wild type huCCR8 (huCCR8 D178A [3]): > 50%
loss of binding compared with wild type huCCR8 (huCCR8 E177A [4]): > 50%
loss of binding compared with wild type huCCR8 (huCCR8 D26A [5]): > 50%
loss of binding compared with wild type huCCR8 (huCCR8 L269A [6]): > 50%
EC50 (huCCR8 M266A [7]): 19.4 nM
fold change of EC50 against wild type huCCR8 (huCCR8 M266A [7]): ~3 fold
EC50 (huCCR8 Y172A [8]): 26.3 nM
fold change of EC50 against wild type huCCR8 (huCCR8 Y172A [8]): > 4 fold
EC50 (huCCR8 D178A [9]): 18.3 nM
fold change of EC50 against wild type huCCR8 (huCCR8 D178A [9]): ~3 fold
EC50 (huCCR8 E177A [10]): 25.4 nM
fold change of EC50 against wild type huCCR8 (huCCR8 E177A [10]): > 4 fold
EC50 (huCCR8 D26A [11]): 16.8 nM
fold change of EC50 against wild type huCCR8 (huCCR8 D26A [11]): > 2 fold
EC50 (huCCR8 L269A [12]): 27.4 nM
fold change of EC50 against wild type huCCR8 (huCCR8 L269A [12]): > 4 fold
EC50 (human CCR8 [13]): 6.3 nM
B1: hu305-5W-3a (antibody, V domains shown)
VH: QVQLKQSGPGLVKPSETLSLTCTVSGFSLAVYGVHWVRQPPGKGLEWLGVIWRGGTTDYNPSLKSRLTFSKDSSKSQVSLKLSSVTAADTAVYYCAKNRVTTVVAPNFYAMDYWGQGTLVTVSS
VL: DIVMTQSPDSLAVSLGERATINCKSSQSLLYSGNQKNYLAWYQQKPGQPPKLLIYWASTRKSGVPDRFSGSGSGTDFTLTISSLKAEDVAVYYCQQYYTYPLTFGQGTRLEIK

EC50 [14]: 5.01 nM
EC50 (Cynomolgus Monkey CCR8): 4.1 nM
EC50 (human CCR8 [15]): 3.67 nM
binding result (mouse CCR8): no binding
EC50 (human CCR8 [16]): 9.37 nM
IC50 (nM), ligand blocking activity (PathHunter beta-arrestin) (human CCR8 [17]): 5.9 nM
B2: Ch305 (antibody, V domains shown)
VH: QVQMKQSGPSLVQPSQSLSITCTVSGFSLTSYGVHWVRQSPGKGLEWLGVIWRGGTTDYNAAFMSRLSFTKDSSKSQVFFKLNSLQADDTAIYYCAKNRVTTVVAPNFYAMDYWGQGTSVTVSS
VL: DIVMTQSPSSLAVSVGEKVTMSCKSSQSLLYSGNQKNYLAWYQQKPGQSPKLLIYWASTRKSGVPDRLTGSGSGTDFTLTISSVKAEDLAAYYCQQYYTYPLTFGAGTRLEIK
